Positions count from the first letter of the chain named. Names and notes keep the numbering of the source.
B1: Cpl-1 DNP→AAA (enzyme, bacteriophage Cp-1, UniProt P15057 1-339, looked up)
chain: MVKKNDLFVDVSSHNGYDITGILEQMGTTNTIIKISESTTYLNPCLSAQVEQSNPIGFYHFARFGGDVAEAEREAQFFLDNVPMQVKYLVLDYEDDPSGDAQANTNACLRFMQMIADAGYKPIYYSYKPFTHDNVDYQQILAQFPNSLWIAGYGLNDGTANFEYFPSMDGIRWWQYSSNPFDKNIVLLDDEEDDKPKTAGTWKQDSKGWWFRRNNGSFPYNKWEKIGGVWYYFDSKGYCLTSEWLKDNEKWYYLKDNGAMATGWVLVGSEWYYMDDSGAMVTGWVKYKNNWYYMTNERGNMVSNEFIKSGKGWYFMNTNGELAAAASFTKEPDGLITVA
B2: Cpl-1 KEP→AAA (enzyme, bacteriophage Cp-1, UniProt P15057 1-339, looked up)
chain: B1 chain with A324D, A325N, A326P, K330A, E331A, P332A
B3: Cpl-1 W210A (enzyme, bacteriophage Cp-1, UniProt P15057 1-339, looked up)
chain: B1 chain with W210A, A324D, A325N, A326P
B4: Cpl-1 F218A (enzyme, bacteriophage Cp-1, UniProt P15057 1-339, looked up)
chain: B1 chain with F218A, A324D, A325N, A326P
B5: Cpl-1 Y238A (enzyme, bacteriophage Cp-1, UniProt P15057 1-339, looked up)
chain: B1 chain with Y238A, A324D, A325N, A326P
B6: Cpl-1 W210A:F218A (enzyme, bacteriophage Cp-1, UniProt P15057 1-339, looked up)
chain: B1 chain with W210A, F218A, A324D, A325N, A326P
B7: Cpl-1 F218A:Y238A (enzyme, bacteriophage Cp-1, UniProt P15057 1-339, looked up)
chain: B1 chain with F218A, Y238A, A324D, A325N, A326P
B8: Cpl-1 W210A:F218A:Y238A triple mutant (enzyme, bacteriophage Cp-1, UniProt P15057 1-339, looked up)
chain: B1 chain with W210A, F218A, Y238A, A324D, A325N, A326P

Columns and labels:
[1] = biological target: Cpl-1 Δtail (bacteriophage Cp-1) (UniProt P15057); assay: AUC
[2] = biological target: SP-GH25 (uncultured virus); assay: SEC
[3] = biological target: SP-Amidase (uncultured virus); assay: SEC
[4] = biological target: SP-CHAP (uncultured virus); assay: SEC
Cpl-1 = Cpl-1 (Streptococcus phage Cp1, UniProt P15057); assay: analytical size exclusion chromatography; assay type: binding
SEC = biological target: the molecule itself; assay: SEC

Row | Molecule | stoichiometry N (SEC) | other results
1 | Cpl-1 Δtail (from UniProt P15057 1-323) (domain or fragment) | – | stoichiometry N [1]: 2
2 | SP-GH25 (enzyme) | – | stoichiometry N [2]: 2
3 | SP-Amidase (enzyme) | – | stoichiometry N [3]: 2
4 | SP-CHAP (enzyme) | – | stoichiometry N [4]: 2
5 | C[N+](C)(C)CCO [choline] | – | Kd (Cpl-1): ~5 mM
6 | B1 | 2 | –
7 | B2 | 2 | –
8 | B3 | 2 | –
9 | B4 | 2 | –
10 | B5 | 2 | –
11 | B6 | 2 | –
12 | B7 | 2 | –
13 | B8 | 2 | –

— publication PMC10577085 (ACS infectious diseases, 2023)
